Reference: patent publication US20250163127A1
Substitutions are numbered along the chain they refer to. Numbers in names are those of the source.

B1: ICOSL-Fc N52A/N57Y/Q100A (Fc fusion)
chain: DTQEKEVRAMVGSDVELSCACPEGSRFDLNDVYVYWQTSESKTVVTYHIPQASSLEYVDSRYRNRALMSPAGMLRGDFSLRLFNVTPQDEQKFHCLVLSASLGFQEVLSVEVTLHVAANFSVPVVSAPHSPSQDELTFTCTSINGYPRPNVYWINKTDNSLLDQALQNDTVFLNMRGLYDVVSVLRIARTPSVNIGCCIENVLLQQNLTVGSQTGNDIGERDKITENPVSTGEKNAAT
B2: ICOSL-Fc N52R/N57Y/Q100R (Fc fusion)
chain: B1 chain with A52R, A100R
B3: ICOSL-Fc N52R/N57L/Q100S (Fc fusion)
chain: B1 chain with A52R, Y57L, A100S
B4: ICOSL-Fc N52S/N57M/Q100S (Fc fusion)
chain: B1 chain with A52S, Y57M, A100S
B5: ICOSL-Fc N52R/N57W/Q100K (Fc fusion)
chain: B1 chain with A52R, Y57W, A100K
B6: ICOSL-Fc N52M/N57H/Q100S (Fc fusion)
chain: B1 chain with A52M, Y57H, A100S
B7: ICOSL-Fc N52V/N57T/Q100L (Fc fusion)
chain: B1 chain with A52V, Y57T, A100L
B8: ICOSL-Fc N52R/N57L/Q100A (Fc fusion)
chain: B1 chain with A52R, Y57L
B9: ICOSL-Fc N52S/N57H/Q100E (Fc fusion)
chain: B1 chain with A52S, Y57H, A100E
B10: ICOSL-Fc N52R/N57Y/Q100S (Fc fusion)
chain: B1 chain with A52R, A100S
B11: ICOSL-Fc N52T/N57H/Q100S (Fc fusion)
chain: B1 chain with A52T, Y57H, A100S
B12: ICOSL-Fc N52L/N57H/Q100R (Fc fusion)
chain: B1 chain with A52L, Y57H, A100R
B13: ICOSL-Fc N52K/N57Y/Q100R (Fc fusion)
chain: B1 chain with A52K, A100R
B14: ICOSL-Fc N52S/N57L/Q100S (Fc fusion)
chain: B1 chain with A52S, Y57L, A100S
B15: ICOSL-Fc N52R/N57F/Q100T (Fc fusion)
chain: B1 chain with A52R, Y57F, A100T
B16: ICOSL-Fc N52T/N57H/Q100A (Fc fusion)
chain: B1 chain with A52T, Y57H
B17: ICOSL-Fc N52S/N57Y/Q100M (Fc fusion)
chain: B1 chain with A52S, A100M
B18: ICOSL-Fc N52S/N57Y/Q100S (Fc fusion)
chain: B1 chain with A52S, A100S
B19: ICOSL-Fc N52G/N57V (Fc fusion)
chain: B1 chain with A52G, Y57V, A100Q
B20: ICOSL-Fc N57Q/Q100P (Fc fusion)
chain: B1 chain with A52N, Y57Q, A100P
B21: ICOSL-Fc N52G/N57V/Q100G (Fc fusion)
chain: B1 chain with A52G, Y57V, A100G
B22: ICOSL-Fc N52C/N57E/Q100S (Fc fusion)
chain: B1 chain with A52C, Y57E, A100S
B23: ICOSL-Fc N52Q/N57F (Fc fusion)
chain: B1 chain with A52Q, Y57F, A100Q
B24: ICOSL-Fc N52M/N57W/Q100P (Fc fusion)
chain: B1 chain with A52M, Y57W, A100P
B25: ICOSL-Fc N52P/N57S/Q100G (Fc fusion)
chain: B1 chain with A52P, Y57S, A100G
B26: ICOSL-Fc N52Q/N57S/Q100A (Fc fusion)
chain: B1 chain with A52Q, Y57S
B27: ICOSL-Fc N52S/N57Y/Q100V (Fc fusion)
chain: B1 chain with A52S, A100V
B28: ICOSL-Fc N52L/N57V (Fc fusion)
chain: B1 chain with A52L, Y57V, A100Q
B29: variant CD80 V4M/L70Q/A91G/I118V/T120S/T130A/K169E (Fc fusion)
chain: VIHMTKEVKEVATLSCGHNVSVEELAQTRIYWQKEKKMVLTMMSGDMNIWPEYKNRTIFDITNNLSIVIQALRPSDEGTYECVVLKYEKDGFKREHLAEVTLSVKADFPTPSISDFEVPSSNIRRIICSASGGFPEPHLSWLENGEELNAINTTVSQDPETELYAVSSELDFNMTTNHSFMCLIKYGHLRVNQTFNWNTTKQEHFPDN
B30: variant CD80 L70Q/A91G/I118V/T120S/T130A/K169E (Fc fusion)
chain: B29 chain with M4V
B31: variant CD80 S44P/L70Q/A91G/T130A (Fc fusion)
chain: B29 chain with M4V, S44P, V118I, S120T, E169K

Assays:
[1] = biological target: CTLA-4 (Homo sapiens (Human)) (UniProt P16410); experiment: flow cytometry, transfected cells
CD28 (human) [2] = biological target: CD28 (human) (UniProt P10747); experiment: flow cytometry, transfected cells
[3] = substrate: ICOS (Homo sapiens (Human)) (UniProt Q9Y6W8); experiment: flow cytometry, transfected cells
PD-L1 (human) = experiment: flow cytometry, cells expressing PD-L1
CTLA-4 (human) = experiment: flow cytometry, cells expressing CTLA-4
CD28 (human) [4] = biological target: CD28 (human) (UniProt P10747); experiment: flow cytometry, cells expressing CD28

Sequence of ICOS (Homo sapiens (Human)) (Q9Y6W8 21-199 limits assumed): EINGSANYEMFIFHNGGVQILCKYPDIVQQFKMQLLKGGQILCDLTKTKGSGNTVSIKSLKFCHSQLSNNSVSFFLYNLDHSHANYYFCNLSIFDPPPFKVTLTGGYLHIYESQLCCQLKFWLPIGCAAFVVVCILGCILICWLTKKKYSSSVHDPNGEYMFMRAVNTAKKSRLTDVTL
Sequence of PD-L1 (human) (chain, as listed by the source): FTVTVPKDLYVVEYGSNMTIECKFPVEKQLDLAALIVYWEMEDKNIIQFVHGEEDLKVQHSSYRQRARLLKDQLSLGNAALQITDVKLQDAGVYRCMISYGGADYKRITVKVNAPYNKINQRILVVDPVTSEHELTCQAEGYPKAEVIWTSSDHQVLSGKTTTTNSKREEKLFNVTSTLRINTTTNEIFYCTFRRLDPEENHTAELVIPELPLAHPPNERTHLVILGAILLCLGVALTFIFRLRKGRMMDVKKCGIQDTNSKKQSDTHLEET
Sequence of CTLA-4 (Homo sapiens (Human)) (P16410 36-223): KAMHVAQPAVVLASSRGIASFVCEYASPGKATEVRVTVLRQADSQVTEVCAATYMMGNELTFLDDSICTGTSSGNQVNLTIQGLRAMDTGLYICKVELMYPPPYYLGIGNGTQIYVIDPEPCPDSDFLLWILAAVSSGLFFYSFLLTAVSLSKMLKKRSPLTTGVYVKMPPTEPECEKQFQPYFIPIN
Sequence of CTLA-4 (human) (chain, as listed by the source): as the sequence (P16410 36-223) above

Binder	MFI [1] [MFI]	MFI ratio to WT (ΔWT) [1] [fold]	MFI (CD28 (human) [2]) [MFI]	MFI ratio to WT (ΔWT) (CD28 (human) [2]) [fold]	MFI [3] [MFI]	MFI ratio to WT (ΔWT) [3] [fold]	MFI (PD-L1 (human)) [MFI]	parental ratio (PD-L1 (human))	MFI (CTLA-4 (human)) [MFI]	parental ratio (CTLA-4 (human))	MFI (CD28 (human) [4]) [MFI]	parental ratio (CD28 (human) [4])
B1	320000	0.97	147000	6.6	261000	1.23						
B2	4270	0.01	3280	0.1	6100	0.03						
B3	289000	0.88	112000	5	231000	1.09						
B4	228000	0.69	134000	6	312000	1.47						
B5	477000	1.44	131000	5.9	349000	1.65						
B6	463000	1.4	115000	5.1	266000	1.25						
B7	11500	0.03	6200	0.3	29200	0.14						
B8	403000	1.22	119000	5.3	308000	1.45						
B9	302000	0.92	117000	5.2	258000	1.22						
B10	504000	1.53	133000	6	229000	1.08						
B11	378000	1.14	143000	6.4	259000	1.22						
B12	353000	1.07	141000	6.3	250000	1.18						
B13	233000	0.71	141000	6.3	199000	0.94						
B14	197000	0.6	108000	4.8	269000	1.27						
B15	358000	1.08	127000	5.7	270000	1.27						
B16	350000	1.06	113000	5	220000	1.04						

Binder	MFI [1] [MFI]	MFI ratio to WT (ΔWT) [1] [fold]	MFI (CD28 (human) [2]) [MFI]	MFI ratio to WT (ΔWT) (CD28 (human) [2]) [fold]	MFI [3] [MFI]	MFI ratio to WT (ΔWT) [3] [fold]	MFI (PD-L1 (human)) [MFI]	parental ratio (PD-L1 (human))	MFI (CTLA-4 (human)) [MFI]	parental ratio (CTLA-4 (human))	MFI (CD28 (human) [4]) [MFI]	parental ratio (CD28 (human) [4])
B17	395000	1.2	157000	7	303000	1.43						
B18	205000	0.62	161000	7.2	224000	1.06						
B19	52500	0.16	69100	3.1	332000	1.57						
B20	69100	0.21	15200	0.7	205000	0.97						
B21	14700	0.04	23700	1.1	260000	1.23						
B22	10600	0.03	13400	0.6	125000	0.59						
B23	367000	1.11	131000	5.9	192000	0.91						
B24	343000	1.04	168000	7.5	322000	1.52						
B25	5050	0.02	6800	0.3	143000	0.68						
B26	315000	0.95	91300	4.1	263000	1.24						
B27	305000	0.92	126000	5.7	219000	1.03						
B28	151000	0.46	54800	2.5	257000	1.21						
B29							6	0.09	263	1.26	89	0.94
B30							6					
B31							5	0.07	134	0.64	88	0.92
